In IntAct's records for PubMed 25910212:

B1: Emerin (Homo sapiens), P50402 (parent)
chain: MDNYADLSDTELTTLLRRYNIPHGPVVGSTRRLYEKKIFEYETQRRRLSPPSSSAASSYSFSDLNSTRGDADMYDLPKKEDALLYQSKGYNDDYYEESYFTTRTYGEPESAGPSRAVRQSVTSFPDADAFHHQVHDDDLLSSSEEECKDRERPMYGRDSAYQSITHYRPVSASRSSLDLSYYPTSSSTSFMSSSSSSSSWLTRRAIRPENRAPGAGLGQDRQVPLWGQLLLFLVFVIVLFFIYHFMQAEEGNPF
partner: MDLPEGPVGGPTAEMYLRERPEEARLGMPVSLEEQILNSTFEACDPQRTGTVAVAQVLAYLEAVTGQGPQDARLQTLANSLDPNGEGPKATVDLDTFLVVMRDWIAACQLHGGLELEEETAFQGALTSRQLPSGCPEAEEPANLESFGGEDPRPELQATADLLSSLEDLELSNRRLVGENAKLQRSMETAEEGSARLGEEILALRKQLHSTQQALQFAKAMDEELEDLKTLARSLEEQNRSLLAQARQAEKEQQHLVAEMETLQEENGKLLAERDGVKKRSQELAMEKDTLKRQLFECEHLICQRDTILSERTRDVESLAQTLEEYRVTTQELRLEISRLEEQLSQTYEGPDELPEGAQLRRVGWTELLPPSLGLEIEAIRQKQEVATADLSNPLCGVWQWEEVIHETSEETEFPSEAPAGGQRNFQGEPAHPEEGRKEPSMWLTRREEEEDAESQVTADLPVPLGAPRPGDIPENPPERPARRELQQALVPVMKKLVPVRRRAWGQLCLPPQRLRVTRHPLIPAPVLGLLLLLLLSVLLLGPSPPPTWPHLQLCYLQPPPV
B2: Methylmalonyl-CoA epimerase, mitochondrial (Homo sapiens), Q96PE7 (parent)
chain: MARVLKAAAANAVGLFSRLQAPIPTVRASSTSQPLDQVTGSVWNLGRLNHVAIAVPDLEKAAAFYKNILGAQVSEAVPLPEHGVSVVFVNLGNTKMELLHPLGRDSPIAGFLQKNKAGGMHHICIEVDNINAAVMDLKKKKIRSLSEEVKIGAHGKPVIFLHPKDCGGVLVELEQA
B3: Polyunsaturated fatty acid 5-lipoxygenase (Homo sapiens), P09917 (parent)
chain: MPSYTVTVATGSQWFAGTDDYIYLSLVGSAGCSEKHLLDKPFYNDFERGAVDSYDVTVDEELGEIQLVRIEKRKYWLNDDWYLKYITLKTPHGDYIEFPCYRWITGDVEVVLRDGRAKLARDDQIHILKQHRRKELETRQKQYRWMEWNPGFPLSIDAKCHKDLPRDIQFDSEKGVDFVLNYSKAMENLFINRFMHMFQSSWNDFADFEKIFVKISNTISERVMNHWQEDLMFGYQFLNGCNPVLIRRCTELPEKLPVTTEMVECSLERQLSLEQEVQQGNIFIVDFELLDGIDANKTDPCTLQFLAAPICLLYKNLANKIVPIAIQLNQIPGDENPIFLPSDAKYDWLLAKIWVRSSDFHVHQTITHLLRTHLVSEVFGIAMYRQLPAVHPIFKLLVAHVRFTIAINTKAREQLICECGLFDKANATGGGGHVQMVQRAMKDLTYASLCFPEAIKARGMESKEDIPYYFYRDDGLLVWEAIRTFTAEVVDIYYEGDQVVEEDPELQDFVNDVYVYGMRGRKSSGFPKSVKSREQLSEYLTVVIFTASAQHAAVNFGQYDWCSWIPNAPPTMRAPPPTAKGVVTIEQIVDTLPDRGRSCWHLGAVWALSQFQENELFLGMYPEEHFIEKPVKEAMARFRKNLEAIVSVIAERNKKKQLPYYYLSPDRIPNSVAI
partner: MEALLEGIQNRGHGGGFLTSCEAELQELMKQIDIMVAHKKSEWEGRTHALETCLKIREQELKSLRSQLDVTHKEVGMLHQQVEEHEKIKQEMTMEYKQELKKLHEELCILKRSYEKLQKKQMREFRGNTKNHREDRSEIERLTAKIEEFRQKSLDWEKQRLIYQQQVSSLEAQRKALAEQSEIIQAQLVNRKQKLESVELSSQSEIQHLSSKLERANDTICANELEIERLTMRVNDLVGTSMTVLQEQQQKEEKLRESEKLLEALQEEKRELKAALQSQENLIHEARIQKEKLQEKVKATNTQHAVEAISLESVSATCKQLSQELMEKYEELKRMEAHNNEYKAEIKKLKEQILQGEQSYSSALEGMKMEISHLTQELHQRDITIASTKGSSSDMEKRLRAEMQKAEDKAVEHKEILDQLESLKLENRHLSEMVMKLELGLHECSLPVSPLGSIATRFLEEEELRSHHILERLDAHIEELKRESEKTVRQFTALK
B4: Adenosylhomocysteinase (Homo sapiens), P23526 (parent)
chain: MSDKLPYKVADIGLAAWGRKALDIAENEMPGLMRMRERYSASKPLKGARIAGCLHMTVETAVLIETLVTLGAEVQWSSCNIFSTQDHAAAAIAKAGIPVYAWKGETDEEYLWCIEQTLYFKDGPLNMILDDGGDLTNLIHTKYPQLLPGIRGISEETTTGVHNLYKMMANGILKVPAINVNDSVTKSKFDNLYGCRESLIDGIKRATDVMIAGKVAVVAGYGDVGKGCAQALRGFGARVIITEIDPINALQAAMEGYEVTTMDEACQEGNIFVTTTGCIDIILGRHFEQMKDDAIVCNIGHFDVEIDVKWLNENAVEKVNIKPQVDRYRLKNGRRIILLAEGRLVNLGCAMGHPSFVMSNSFTNQVMAQIELWTHPDKYPVGVHFLPKKLDEAVAEAHLGKLNVKLTKLTEKQAQYLGMSCDGPFKPDHYRY
partner: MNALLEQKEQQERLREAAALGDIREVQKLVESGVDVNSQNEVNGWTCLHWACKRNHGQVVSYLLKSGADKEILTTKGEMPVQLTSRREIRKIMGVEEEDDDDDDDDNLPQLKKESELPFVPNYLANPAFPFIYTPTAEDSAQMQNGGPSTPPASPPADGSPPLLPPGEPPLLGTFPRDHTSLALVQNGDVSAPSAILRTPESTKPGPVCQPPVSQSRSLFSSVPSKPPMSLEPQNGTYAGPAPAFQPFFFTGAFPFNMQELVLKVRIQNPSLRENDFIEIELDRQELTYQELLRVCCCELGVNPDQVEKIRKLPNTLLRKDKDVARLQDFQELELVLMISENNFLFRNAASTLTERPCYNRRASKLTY

Variants of: B1
Conditions: with kash5_human KASH5, Q8N6L0

| effect of a mutation on the interaction | Variant |
| --- | --- |
| with no effect | P183T |

Variants of: B2
Conditions: with AGTRAP

| effect of a mutation on the interaction | Variant |
| --- | --- |
| with no effect | R143H |
| with no effect | R143C |
| with no effect | A76V |

Variants of: B2
Conditions: with CMTM5, Q96DZ9-2
Chain of CMTM5, Q96DZ9-2 (Q96DZ9 other isoform, or with tags, fused parts or gaps): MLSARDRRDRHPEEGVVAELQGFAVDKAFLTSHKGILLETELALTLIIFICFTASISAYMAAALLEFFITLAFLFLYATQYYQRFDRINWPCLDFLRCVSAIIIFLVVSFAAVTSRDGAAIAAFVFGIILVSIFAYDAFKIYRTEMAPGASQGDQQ

| effect of a mutation on the interaction | Variant |
| --- | --- |
| with no effect | R143H |
| with no effect | R143C |
| with no effect | A76V |

Variants of: B3
Conditions: with CEP63, Q96MT8-3

| effect of a mutation on the interaction | Variant |
| --- | --- |
| with no effect | E254K |

Variants of: B4
Conditions: with anr40_human ANKRD40, Q6AI12

| effect of a mutation on the interaction | Variant |
| --- | --- |
| with no effect | D86G |
| disrupting interaction strength | A89V |
